Data as given in patent CN115386006A (SHANGHAI XIANGYAO BIOLOGICAL TECH CO LTD, dated 2022).
Where a chain is given by its changes, count along the chain named.

B1: HTS0373 scFv (scFv, V domains shown)
VH: EVQLQQSGPELVKPGASMKISCKASGYSFAGYTVNWVKQSHGKNLEWIGLINPYNGGTTYTPKFKDKATLTVDKSSSTAYMELLSLTSEDSAVYYCTRGGFYRYDFDFWGQGTSVTVSS
VL: DILMTQSPSSLSASLGERVSLTCRASQEISGYLSWLQQKPDGTIKRLIYAASTLDSGVPKRFSGSRSGSDYSLTISSLESEDFADYYCLQYASYPFTFGSGTKLEMK
notes: Tested as one scFv chain in E. coli supernatant, found with an anti-6xHis antibody
B2: HTS0374 scFv (scFv, V domains shown)
VH: B1 VH with E1Q, A16T, A30T, V115L
VL: EIQMTQSPSSLSASLGERVSLTCRASQDIGSSLNWLQQEPDGTIKRLIYATSSLDSGVPKRFSGSRSGSDYSLTISSLESEDFVDYYCLQYASSPYTFGGGTKLEMK
notes: as for B1
B3: HTS0370 scFv (scFv, V domains shown)
VH: EVQLQQSGAELMKPGASVKISCKATGYTFSSYWMEWVKQRPGLGLEWIGQILPGSSYTNYNDKFKGKATFTADTSSNTAYMQLSSLTSEDSAVYYCAKKGGPIYYGNRPFYYAMDYWGQGTSVTVSS
VL: NIMMTQTPKFLLVSAGDRVTITCKASQSVSNDVAWYQQKPGQSPKLQIYYASNRYTGVPDRFTGSGYGTDFTFTISTVQAEDLAVYFCQQDYSSPLTFGAGTKLEIK
notes: as for B1
B4: HTS0372 scFv (scFv, V domains shown)
VH: EVQLQQSGPELVKPGASMKISCKASGYSFTGYTMNWVKQSHGKNLEWIGLINPYNGRTIYNQKFKGKATLTVDKSSSTAYMELLSLTSEDSAVYYCARVALRYAMDYWGQGTSLTVSS
VL: DIVMTQSQKFMSTSVGDRVSVTCKASQNVGTNVAWYQQKPGQSPKALIYSASYRYSGVPDRFTGSGSGTDFTLTISNVQSEDLAEYFCQQYNSYPLTFGAGTKLEIN
notes: as for B1
B5: HTS0375 scFv (scFv, V domains shown)
VH: B4 VH
VL: B4 VL with D1S, R18K, N28S, G30Y, A46S, S56N, L96V, N107K
notes: as for B1
B6: HTS0371 scFv (scFv, V domains shown)
VH: EVQLQQSGPELVKPGASVKMSCKASGYTFTSYVMHWVKQKPGQGLEWIGYINPYNDGTKYNEKFKGKATLTSDKSSSTAYMELSSLTSEDSAVYYCARGGKLNWYFDVWGAGTTVTVSS
VL: NIVMTQSPASLAVSLGQRATISCRASESVDSYGNSFMHWYQQKPGQPPKLLIYLASNLESGVPARFSGSGSRTDFTLTIDPVEADDAATYYCQQNNEDPYTFGGGTKLEIN
notes: as for B1

These binders were tested against T1, 人GPRC5D (human G protein-coupled receptor family C group 5 member D) (human, UniProt Q9NZD1 1-345) (assay: flow cytometry, scFv supernatant on HEK293-GPRC5D-ZSGreen1 and H929 cells, APC anti-6xHis).
T1 construct: also called huGPRC5D; hGPRC5D
T1 sequence (Q9NZD1 whole entry): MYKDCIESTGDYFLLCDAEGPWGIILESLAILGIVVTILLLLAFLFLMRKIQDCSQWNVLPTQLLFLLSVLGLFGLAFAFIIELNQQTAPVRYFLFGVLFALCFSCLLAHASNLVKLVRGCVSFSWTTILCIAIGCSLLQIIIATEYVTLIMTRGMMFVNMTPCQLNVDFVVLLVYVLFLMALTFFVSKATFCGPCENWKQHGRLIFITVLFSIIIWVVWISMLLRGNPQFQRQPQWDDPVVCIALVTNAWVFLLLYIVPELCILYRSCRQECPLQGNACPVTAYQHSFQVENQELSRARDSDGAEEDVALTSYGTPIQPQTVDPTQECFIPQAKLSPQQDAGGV

Binding result, binds:
B1
B2
B3
B4
B5
B6
